Laboratory results: paper PMC7616481, “The functional evolution of collembolan Ubx on the regulation of abdominal appendage formation”

Assays:
[1] = target: FcUbx isoform 1 (FcU1, FcUbx1), N-terminally truncated (Folsomia candida, UniProt A0AA95ZMF5 39-293); test: EMSA; 0.2-1.5 pmol FcU1; 20 ul with EMSA buffer (5x: 0.1 M Tris, 25% glycerol, 0.2 mg/ml BSA), MgCl2 (2.5 M stock), DTT (1 M stock), poly(dI-dC), 20 ng Cy5 probe; 25 min at 25 C; 12% native PAGE on ice; pH not stated; details: protein: recombinant; tags: GST; label: 5'-Cy5 (both strands)
[2] = target: FcUbx isoform 2 (FcU2, FcUbx2), N-terminally truncated (Folsomia candida, UniProt A0AA96CC73 39-288); test: EMSA; 0.4-3 pmol FcU2; 20 ul with EMSA buffer (5x: 0.1 M Tris, 25% glycerol, 0.2 mg/ml BSA), MgCl2 (2.5 M stock), DTT (1 M stock), poly(dI-dC), 20 ng Cy5 probe; 25 min at 25 C; 12% native PAGE on ice; pH not stated; details: protein: recombinant; tags: GST; label: 5'-Cy5 (both strands)

B1: DMXR (dsDNA)
DNA 1: GACAATATTTGGGAAATTAAATCATTCCCGCGGACAGTTTTATAGTGC
DNA 2: GCACTATAAAACTGTCCGCGGGAATGATTTAATTTCCCAAATATTGTC
binding result [1]: binds | binding result [2]: binds
